± gives the standard deviation.
Assay: protein stability index of a GFP-peptide fusion (GPS, HEK-293T) (PSI 1-6); higher = more stable
[1] = treatment: DMSO, c terminus: a fixed tail appended
[2] = treatment: MLN4924 1 uM, 8 h, c terminus: a fixed tail appended
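Note: 24-mer peptide tiles fused after GFP, lentivirally expressed, FACS-sorted into six equal bins by GFP/DsRed ratio, decoded by Illumina sequencing, PSI is the read-weighted mean bin number.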

| Sequence | protein stability index [1] | protein stability index [2] | protein stability index (treatment: DMSO, c terminus: native) | protein stability index (treatment: MLN4924 1 uM, 8 h, c terminus: native) |
| --- | --- | --- | --- | --- |
| LLFEYPESSSPARGIAIVSVLVIL [KCNA4] | 2.92 ± 0.2 | 3 ± 0.36 | – | – |
| AAAYTFLQRNPKHELTAKYLNYYQ [P3H4] | 2.25 ± 0.23 | 2 ± 0.33 | – | – |
| RGDPAHAGLAELGHRLAQKLQGLE [PBXIP1] | 3.04 ± 0.34 | 3.29 ± 0.32 | – | – |
| SLTVPLLGAMMLLESPIDPQPLSF [APMAP] | 2.46 ± 0.56 | 2.81 ± 0.51 | – | – |
| LDMELGPSQGQETNEVCEQAGGGA [ADAMTSL2] | 5.33 ± 0.52 | 5.27 ± 0.54 | – | – |
| ANNRILAERIAKEIQVIPLQRDDE [IMPA1] | 4.17 ± 0.38 | 4.04 ± 0.068 | – | – |
| NGFGLVEDSAQNCFALIPKAPKKD [EFHC1] | 4.75 ± 0.34 | 4.74 ± 0.13 | – | – |
| GAPLLPPPLPPPSPPGSGRGPGAS [ACBD3] | 5.23 ± 0.21 | 5.108 ± 0.027 | – | – |
| AHSNEILIFSVQPKSLVRLSLEAV [KLHDC2] | 3.01 ± 0.48 | 2.6 ± 0.12 | – | – |
| FIVIDAMLERIKHEKTVDIYGHVT [PTPRD] | 3.04 ± 1.2 | 2.5 ± 1.1 | – | – |
| SALEDQGSNPSSSNSSQDSLHKGA [PPFIA4] | 5.48 ± 0.14 | 5.49 ± 0.23 | – | – |
| ERALDATEVPFSITTDNLQCRERR [TEKT4] | 4.88 ± 0.069 | 5.06 ± 0.11 | – | – |
| IEIVHISTVQILTEGFPPGGGNAR [ZFYVE21] | 2.51 ± 0.67 | 2.72 ± 0.74 | – | – |
| LIDYKSYMDTKLLVARFLEQSSCT [FAM189A2] | 2.38 ± 0.091 | 2.25 ± 0.19 | – | – |
| SVVCRELGFGSAKEAVTGSRLGQG [LOXL2] | 3.69 ± 0.41 | 4.12 ± 0.44 | – | – |
| PPLNPTSWWADLRALARNLIFGLI [SPNS1] | 4.75 ± 0.3 | 4.74 ± 0.32 | – | – |
| DKLKIDLLPDGRHAVVEVEDVPLA [TAF7L] | 4.61 ± 0.15 | 4.8 ± 0.24 | – | – |
| PTYSDFCQFRPPVRVNDGGGSHPS [VDR] | 3.9 ± 0.25 | 4.03 ± 0.18 | – | – |
| SRRASESSLSSESSESSDAGLCMD [CDC25B] | 5.06 ± 0.39 | 5.33 ± 0.18 | – | – |
| MMVRQMKEDAKGKSEEELAECFRI [TNNC2] | – | 4.3 ± 0.52 | – | – |
| SLHDGSDGLDGISVGSYLDTLADD [LURAP1L] | 5 ± 0.17 | 4.93 ± 0.25 | – | – |
| QAIQMRLVDVACKHLTDTSHGVRN [INTS4] | 2.52 ± 0.4 | 2.52 ± 0.23 | – | – |
| HEALSRLWELCHLWLRPEVHTKEQ [ZNF396] | 2.11 ± 0.45 | 2.4 ± 0.14 | – | – |

| Sequence | protein stability index [1] | protein stability index [2] | protein stability index (treatment: DMSO, c terminus: native) | protein stability index (treatment: MLN4924 1 uM, 8 h, c terminus: native) |
| --- | --- | --- | --- | --- |
| AAIFKIYLSCLEELMKCQIIYPRQ [TRIP13] | 3.08 ± 0.43 | 3.21 ± 0.17 | – | – |
| IWLDNLHCTGNEATLAACTSNGWG [LOXL2] | 2.18 ± 0.31 | 2.27 ± 0.3 | – | – |
| NIPERASGPEGNLNQIVTEPDANF [FAM104B] | 5.35 ± 0.15 | 5.23 ± 0.47 | – | – |
| AIELQGHNDRVQALSYAQHTRQLI [WDFY2] | 3.1 ± 0.36 | 3.15 ± 0.41 | – | – |
| FLQALSLAVDKQFEERKKLAAYI [TRIP13] | – | – | 3.18 ± 0.71 | 2.54 ± 0.51 |
| FRALAPMYYRGSAAAIIVYDITKE [RAB22A] | 2.27 ± 0.36 | 2.16 ± 0.54 | – | – |
| RQAIFPDTWTLTEEHGLQQERPRP [PXN] | 4.43 ± 0.25 | 4.25 ± 0.28 | – | – |
| FVVLAFLTGVLCSYPNPNEDKCPG [TMEM192] | 2.92 ± 0.52 | 3.22 ± 0.46 | – | – |
| LSDVQNPAISITENVLHFKAQGHG [HACD3] | 4.13 ± 0.19 | 4.28 ± 0.15 | – | – |
| SPESGLEVRDRMLLKITIPNAFIG [DVL3] | 2.3 ± 0.15 | 2.24 ± 0.34 | – | – |
| VKESGERKVTDSISKSLELCNEIS [DLC1] | 4.52 ± 0.11 | 4.82 ± 0.21 | – | – |
| DLVFVIDGSKSLGEENFEVVKQFV [MATN2] | 2.38 ± 0.35 | 2.44 ± 0.49 | – | – |
| FIYDMCGSNYANFELDLGKKVLNL [PTPN9] | 3.01 ± 1.1 | 2.22 ± 1.5 | – | – |
| SIKMGKRNGLHLPEQVQNEIKSMK [NLN] | 4.02 ± 0.17 | 3.87 ± 0.55 | – | – |
| WKFPVPVLKTSRSTPLSPAYISLV [KLHL13] | 2.48 ± 0.42 | 2.26 ± 0.1 | – | – |
| IAEVCCTSIVYATEKKQTKVEFPE [KCTD10] | 3.42 ± 0.18 | 3.9 ± 0.39 | – | – |
| KASNSIISCFNNAPPAKLACPVCS [FAN1] | 2.92 ± 0.15 | 3.1 ± 0.4 | – | – |
| LSVSNNQEPDFIDDIEEKTPISNE [KMT2E] | 4.69 ± 0.37 | 4.75 ± 0.21 | – | – |
| YQELNYRSVEEAPVYSVPQLLSAM [SCNN1D] | 2.49 ± 0.34 | 2.69 ± 0.29 | – | – |
| AVLAASSPYFHDQVLLKGMTSISL [ZBTB22] | 2.7 ± 0.32 | 2.47 ± 0.34 | – | – |
| YTGIVLLRCRKEFYQLVWSALPFI [POP5] | 3.12 ± 0.41 | 3.05 ± 0.47 | – | – |
| EKDNSRRMLTDKEREMAEIRDQMQ [LMNB1] | 5.3 ± 0.12 | 5.32 ± 0.13 | – | – |
| ACTMDQARGLDDAAARGGQCPGLG [ZBED3] | 4.54 ± 0.18 | 4.51 ± 0.14 | – | – |

| Sequence | protein stability index [1] | protein stability index [2] | protein stability index (treatment: DMSO, c terminus: native) | protein stability index (treatment: MLN4924 1 uM, 8 h, c terminus: native) |
| --- | --- | --- | --- | --- |
| IVTLRHVLAAKERRCGELKRKLGL [TPD52L3] | 2.2 ± 0.11 | 2.18 ± 0.13 | – | – |
| TTQDLFAINRDTAFPGASHESSGN [RHOBTB3] | 4.57 ± 0.51 | 4.87 ± 0.15 | – | – |
| FIIHGFIDKGDESWVTDMCKVGAS [PNLIPRP1] | 1.98 ± 0.25 | 2.65 ± 0.48 | – | – |
| IYAHRVILSACSPYFRAMFTGELA [KLHL20] | 3.16 ± 0.56 | 2.9 ± 0.65 | – | – |
| ITRVLYEVFIEWGISAKVFGATTN [ZBED1] | 3.15 ± 0.88 | 3.04 ± 0.2 | – | – |
| DTVTEVTARMEMLIEELYAFMPAR [CBY2] | 2.38 ± 0.25 | 2.47 ± 0.48 | – | – |
| LQHTQELFPQWHLPIKIAAIIASL [STEAP1] | 2.16 ± 0.35 | 2.1 ± 0.24 | – | – |
| VYASDKEWIRFDQSNVLCSIFGIC [PTGFR] | 2.56 ± 1.4 | 2.24 ± 0.78 | – | – |
| VLRLCCKKLKIFAMPMQDIKMILK [PRAME] | 2.81 ± 0.38 | 2.73 ± 0.52 | – | – |
| QARKRQEEREKEAAEQAERSQSSI [SMARCE1] | 5.26 ± 0.71 | 5.702 ± 0.038 | – | – |
| FGDVSERLALRQRLKCRSFKWYLE [GALNT9] | 2.29 ± 0.59 | 2.54 ± 0.37 | – | – |
| LLGLGVLLFSGGLSESETGPMEEV [PBXIP1] | 2.22 ± 0.062 | 2.32 ± 0.31 | – | – |
| HDGEDVACPQGGVQYGAGVACSET [LOXL2] | 4.99 ± 0.31 | 5.42 ± 0.32 | – | – |
| QDRDALHMEGLIVRERILGADNID [FEM1B] | 4.38 ± 0.39 | 4.29 ± 0.28 | – | – |
| SLGVPGSVGGVPGGTGSGDGNKIF [ZBTB22] | 4.38 ± 0.26 | 4.3 ± 0.22 | – | – |
| WDKEPWFWHDTLTEQLWRIFAGVH [TLE6] | 2.61 ± 0.82 | 2.22 ± 0.57 | – | – |
| SIRDANLYVSGLPKTMSQKEMEQL [ELAVL3] | 4.4 ± 0.061 | 4.27 ± 0.2 | – | – |
| DGRFEKRQGNPSWKKQQKCDECGK [ZNF396] | 5.03 ± 0.2 | 5.2 ± 0.11 | – | – |
| SMVDLTSVTLEDVTPKKSPPPKTN [FAN1] | 5.06 ± 0.12 | 4.9 ± 0.27 | – | – |
| EDGEKAAREVKLLLLGAGESGKST [GNAI1] | 4.78 ± 0.25 | 5.28 ± 0.19 | – | – |
| PGYPKMIAHDFPGIGHKVDAVFMK [MMP1] | 2.75 ± 0.17 | 3.02 ± 0.33 | – | – |
| SKPWHWPINYQGLRFSGVNDTDFR [POMT2] | 2.37 ± 0.17 | 2.52 ± 0.26 | – | – |
| RALEEANTELEVKIRDWYQRQAPG [KRT17] | 3.37 ± 0.16 | 3.58 ± 0.4 | – | – |

| Sequence | protein stability index [1] | protein stability index [2] | protein stability index (treatment: DMSO, c terminus: native) | protein stability index (treatment: MLN4924 1 uM, 8 h, c terminus: native) |
| --- | --- | --- | --- | --- |
| SPSYGRSRSRSRSRSRSRSRSNSR [SRSF1] | 5.39 ± 0.47 | 5.43 ± 0.26 | – | – |
| FLRCVTAALIYFAISITAIAKYSD [CMTM3] | 3.41 ± 0.29 | 3.43 ± 0.32 | – | – |
| ERLKVMCEEALCSNLSVENVADTL [SPOPL] | 3.84 ± 0.36 | 4.09 ± 0.39 | – | – |
| PLGGGVGGQDGLGAPKDQQQPPQQ [KLHL14] | 5.31 ± 0.39 | 5.33 ± 0.26 | – | – |
| YYSCERAKKAMGYQPLVTMDDAME [NSDHL] | 3.97 ± 0.34 | 3.71 ± 0.45 | – | – |
| CDYCDRSFQDNLHNRKKHLNGLQH [ZMAT5] | 3.09 ± 0.71 | 3.11 ± 0.38 | – | – |
| LSDNATAFSNRSKQLRRQMWWRGC [VAMP4] | 2.54 ± 0.048 | 2.67 ± 0.33 | – | – |
| YGSGDTPGGPCDSTLGGDIRESDP [TBX6] | 5.25 ± 0.31 | 5.27 ± 0.61 | – | – |
| QLQVPTLRQQCAQVLRNNPDALSD [ELOA2] | 4.24 ± 0.36 | 4.42 ± 0.13 | – | – |
| VDSFQIILDSLLFFYDCSNNPISE [TENT5C] | 3.03 ± 0.14 | 3.14 ± 0.41 | – | – |
| QCPGLGPAPTPTPPGRLGAPYSEA [ZBED3] | 4.35 ± 0.15 | 4.25 ± 0.067 | – | – |
| PPGIPPLMPGVPPLMPGMPPVMPG [ZNF207] | 3.9 ± 0.23 | 4.07 ± 0.21 | – | – |
| NFLIGRQGNKKEHVIHIIDFGLAK [CSNK1G1] | 2.45 ± 0.66 | 1.89 ± 0.39 | – | – |
| KVMIFKSSYSLSDMVSNIELPTRI [MIA2] | 1.88 ± 0.56 | 2.17 ± 0.12 | – | – |
| EEDNELNLPNLAAAYSSILSSLGE [GCH1] | 3.68 ± 0.31 | 3.73 ± 0.16 | – | – |
| PCLLGSRVFSQGSHAWEVALGGLQ [TRIM35] | 2.36 ± 0.15 | 2.35 ± 0.19 | – | – |
| RFYLLLFSFLGLLALGVSLLCNAI [PTGFR] | 2.4 ± 0.26 | 2.57 ± 0.24 | – | – |
| SALTEGAKEEGGEEVAKAVLEQEE [EPB41L3] | 5.63 ± 0.3 | 5.54 ± 0.41 | – | – |
| LEISDQEVLEWYTAKDFIVGKSLT [EFHC1] | 3.06 ± 0.22 | 2.92 ± 0.3 | – | – |
| LSTLLAPYQALRLWARGTWTQATG [SOAT2] | 2.4 ± 0.55 | 2.08 ± 0.55 | – | – |
